Assay results as given in the supplement of paper PMC9112550, “Optimization of the antimicrobial peptide Bac7 by deep mutational scanning” (BMC Biology, 2022).

These sequences were tested on Escherichia coli TOP10 (assay: shrunken log2 fold change of peptide-encoding DNA abundance (4.5 h post-induction vs induction); higher = less antimicrobial activity (less host growth inhibition)). Settings: time post-induction: 4.5 h; library: site-saturation at positions 5, 18, 19, 20.
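Note: peptides expressed intracellularly from a pBAD plasmid library in pooled LB shake-flask culture, induced with 0.3% L-arabinose, DNA abundance read by NGS, three biological replicates, DESeq2 with apeglm shrinkage.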

Sequence | shrunken log2 fold change
RRIRGRPPRLPRPRPRPIYPPRP | 0.119
RRIRPRPPRLPRPRPRPVYEPRP | -0.0626
RRIRDRPPRLPRPRPRPLYWPRP | -0.112
RRIRMRPPRLPRPRPRPVIVPRP | -0.313
RRIRPRPPRLPRPRPRPCVPPRP | -0.134
RRIRGRPPRLPRPRPRPRCAPRP | 1.09
RRIRHRPPRLPRPRPRPWFSPRP | -0.294
RRIRSRPPRLPRPRPRPQCPPRP | -0.172
RRIRFRPPRLPRPRPRPGYRPRP | -0.0212
RRIRLRPPRLPRPRPRPGELPRP | 0.0243
RRIRLRPPRLPRPRPRPYKTPRP | -0.352
RRIRKRPPRLPRPRPRPNKEPRP | -0.0272
RRIRLRPPRLPRPRPRPMNHPRP | -0.409
RRIRMRPPRLPRPRPRPTWLPRP | 0.266
RRIRLRPPRLPRPRPRPRGYPRP | 0.262
RRIRWRPPRLPRPRPRPEDVPRP | 0.0895
RRIRSRPPRLPRPRPRPWVVPRP | -0.00703
RRIRFRPPRLPRPRPRPDFCPRP | -0.0235
RRIRERPPRLPRPRPRPITYPRP | -0.546
RRIRDRPPRLPRPRPRPCWEPRP | 0.28
RRIRGRPPRLPRPRPRPNYHPRP | -0.179
RRIRMRPPRLPRPRPRPVKFPRP | 0.0501
RRIRNRPPRLPRPRPRPVKMPRP | -0.107
RRIRRRPPRLPRPRPRPLQYPRP | 0.615
RRIRVRPPRLPRPRPRPMGLPRP | -0.00681

Sequence | shrunken log2 fold change
RRIRCRPPRLPRPRPRPVMTPRP | -0.147
RRIRIRPPRLPRPRPRPHKAPRP | -0.0133
RRIRFRPPRLPRPRPRPNVRPRP | 0.0987
RRIRPRPPRLPRPRPRPVHEPRP | 0.497
RRIRRRPPRLPRPRPRPKYRPRP | -0.000605
RRIRYRPPRLPRPRPRPAMTPRP | 0.165
RRIRMRPPRLPRPRPRPVLDPRP | 0.331
RRIRERPPRLPRPRPRPDDHPRP | -0.284
RRIRERPPRLPRPRPRPSGVPRP | -0.157
RRIRPRPPRLPRPRPRPHPIPRP | 0.0162
RRIRGRPPRLPRPRPRPYVFPRP | -0.141
RRIRDRPPRLPRPRPRPCPHPRP | -0.228
RRIRFRPPRLPRPRPRPFASPRP | -0.705
RRIRRRPPRLPRPRPRPCFHPRP | -0.00606
RRIRIRPPRLPRPRPRPEWMPRP | -0.0985
RRIRRRPPRLPRPRPRPEFSPRP | 0.0744
RRIRMRPPRLPRPRPRPRMEPRP | 0.0362
RRIRHRPPRLPRPRPRPNVKPRP | -0.112
RRIRNRPPRLPRPRPRPMRRPRP | -0.0657
RRIRFRPPRLPRPRPRPIVRPRP | -0.0797
RRIRWRPPRLPRPRPRPIVGPRP | -0.0113
RRIRFRPPRLPRPRPRPEFFPRP | -0.153
RRIRCRPPRLPRPRPRPLLVPRP | -0.317
RRIRIRPPRLPRPRPRPNAPPRP | 0.00635
RRIRHRPPRLPRPRPRPAWIPRP | -0.0987

Sequence | shrunken log2 fold change
RRIRTRPPRLPRPRPRPDMCPRP | -0.0287
RRIRLRPPRLPRPRPRPNLSPRP | -0.548
RRIRVRPPRLPRPRPRPFEHPRP | -0.00133
RRIRFRPPRLPRPRPRPYQDPRP | -0.151
RRIRCRPPRLPRPRPRPADLPRP | -0.24
RRIRRRPPRLPRPRPRPVNSPRP | -0.0287
RRIRLRPPRLPRPRPRPFCMPRP | -0.623
RRIRLRPPRLPRPRPRPDIMPRP | -0.0927
RRIRKRPPRLPRPRPRPQYKPRP | -0.343
RRIRLRPPRLPRPRPRPNIAPRP | -0.0706
RRIRIRPPRLPRPRPRPNMCPRP | 0.0488
RRIRTRPPRLPRPRPRPPPRPRP | 1.36
RRIRFRPPRLPRPRPRPVGHPRP | -0.0219
RRIRVRPPRLPRPRPRPKLMPRP | -0.203
RRIRTRPPRLPRPRPRPTMAPRP | 0.201
RRIRIRPPRLPRPRPRPTQNPRP | 0.19
RRIRVRPPRLPRPRPRPSCPPRP | -0.245
RRIRVRPPRLPRPRPRPTSFPRP | -0.0728
RRIRMRPPRLPRPRPRPWWHPRP | 0.158
RRIRCRPPRLPRPRPRPGRGPRP | 1.18
RRIRLRPPRLPRPRPRPDTQPRP | 0.0809
RRIRERPPRLPRPRPRPMYIPRP | -0.289
RRIRLRPPRLPRPRPRPCCPPRP | -0.196
RRIRQRPPRLPRPRPRPGCDPRP | -0.229
RRIRLRPPRLPRPRPRPHFFPRP | -0.128
